Results published in FireProtDB (doi:10.1016/0022-2836(82)90184-x).

B1: Tryptophan synthase alpha chain, P0A877 (parent)
chain: MERYESLFAQLKERKEGAFVPFVTLGDPGIEQSLKIIDTLIEAGADALELGIPFSDPLADGPTIQNATLRAFAAGVTPAQCFEMLALIRQKHPTIPIGLLMYANLVFNKGIDEFYAQCEKVGVDSVLVADVPVEESAPFRQAALRHNVAPIFICPPNADDDLLRQIASYGRGYTYLLSRAGVTGAENRAALPLNHLVAKLKEYNAAPPLQGFGISAPDQVKAAIDAGAAGAISGSAIVKIIEQHINEPEKMLAALKVFVQPMKAATRS

Variants of: B1
Conditions: Escherichia coli (strain K12), 25 °C, GdnHCl, CD, reversible: yes, structure 1WQ5, whole UniProt chain shown
[1] = pH 7, Potassium phosphate 0.01 M

| Variant | ddG of mutation (higher = less stable) (pH 5.5, acetate 0.05 M) [kcal/mol] | unfolding free energy (pH 5.5, acetate 0.05 M) [kcal/mol] | ddG of mutation (higher = less stable) [1] [kcal/mol] | unfolding free energy [1] [kcal/mol] | ddG of mutation (higher = less stable) (pH 9, Tris-HCl 0.025 M) [kcal/mol] | unfolding free energy (pH 9, Tris-HCl 0.025 M) [kcal/mol] |
| --- | --- | --- | --- | --- | --- | --- |
| E49V | -0.9 | 6.1 | -3.2 | 12 | -4.5 | 9.4 |
| E49M | -0.7 | 5.9 | -4.5 | 13.3 | -3.5 | 8.4 |
| E49S | 1.3 | 3.9 | 1.4 | 7.4 | -3.1 | 8 |
| E49Q | 2.4 | 2.8 | 2.5 | 6.3 | -3.6 | 8.5 |
| E49Y | 0.4 | 4.8 | 0 | 8.8 | -1.9 | 6.8 |
